Data reported in PMC6335420, “The cell cycle regulator GpsB functions as cytosolic adaptor for multiple cell wall enzymes” (Nature Communications, 2019).
Where a chain is given by its changes, count along the chain named. Residues, ends and D or L forms follow the SMILES beside them. *: point of attachment. Fluorescein(5-Mal) = O=C1OC2(c3ccc(O)cc3Oc3cc(O)ccc32)c2ccc(N3C(=O)CC(*)C3=O)cc21; X1 = CN(C)c1ccc2c(-c3ccc(N4C(=O)CC(*)C4=O)cc3C(=O)[O-])c3ccc(=[N+](C)C)cc-3oc2c1

What was measured:
[1] = target: T1, BsGpsB1-68Lys32Glu (Bacillus subtilis, UniProt P0CI74, K32E); test: Fluorescence polarisation binding to BsGpsB1-68Lys32Glu; conditions: FP, relative to wild-type LmPBPA1 peptide
T1 construct: His6 (N, cleaved yes); made in house; host or cells: E. coli BL21(DE3)
Text: (§1) 75 the BsGpsB5-64:BsPBP11-17 complex.

[2] = target: T2, SpGpsB1-63 (Streptococcus pneumoniae, UniProt Q8DR57); test: Fluorescence polarisation binding to SpGpsB1-63; conditions: FP; for reduction in affinity for SpGpsB1-63: relative to wild-type SpPBP2a23-45
T2 construct: The SpGpsB1-63 expression construct (pET28SpGpsB1-63) was prepared by PCR amplification of gpsB; His6 (N, cleaved yes); made in house; host or cells: E. coli BL21(DE3)
Text: as §1

[3] = target: T3, BsPBP1_(1-32), TAMRA-labelled at position 16 (B. subtilis, UniProt P39793 1-32, Ser16Cys, TAMRA (maleimide) at position 16); test: fluorescence polarisation; GpsB protein titrated into fluorescently labelled peptide; 10 mM Tris.HCl pH 8.0, 250 mM NaCl, 0.1% reduced Triton X-100; fit to a 1:1 interaction model; conditions: both partners purified
T3 construct: PBP1, Bacillus subtilis, residues 1-32; also called BsPBPA1_(1-32); BsPBP1A_(1-32); source: E. coli, His-tagged MBP fusion purified (Ni-NTA), labelled, TEV-cleaved, ultrafiltration
T3 peptide (looked up): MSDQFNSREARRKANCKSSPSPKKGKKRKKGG

[4] = Circular dichroism thermal unfolding of BsGpsB1-68 variants; type: physicochemical; conditions: CD at 222 nm vs temperature, 4.5 μM protein, 20 mM sodium phosphate (pH 7.8) 150 mM NaCl, 1 °C/min
Experimental: CD spectra were recorded on a JASCO J-810 spectropolarimeter with a PTC-4235 Peltier temperature controller using 1 mm path length quartz cuvettes. For full wavelength scans a scan speed of 10 nm^−1min^−1 and a response time of 4 s were used, the final spectra were the average of at least four measurements. BsPBP1_1-32 CD spectra were recorded at 4 °C in a buffer of 20 mM sodium phosphate, pH 7.3 at a peptide concentration of 25 μM. Peptide helical contents were estimated from molar ellipticities at 222 nm using the equation helix = [θ]222 nm / (39,500(1–2.57/n))[78] where n is the number of residues in the peptide. LmPBPA1_1-15 CD spectra were analysed at 40 μM in 20 mM sodium phosphate buffer, pH 7.8, for samples containing 0, 40 and 60% trifluoroethanol (TFE). For samples containing 80% TFE, 5 mM sodium phosphate buffer, pH 7.8, was used. The CD spectra of BsGpsB1-68 proteins were measured at a concentration of 4.5 μM in a buffer of 20 mM sodium phosphate (pH 7.8) 150 mM NaCl. For thermal melt experiments, a response time of 8 s and scan rate of 1 °C^−1min^−1 were used. All thermal melts were reversible as CD spectra recorded before and after the melts in the wavelength range 200–240 nm could be superimposed.

T2 sequence (Q8DR57 1-63): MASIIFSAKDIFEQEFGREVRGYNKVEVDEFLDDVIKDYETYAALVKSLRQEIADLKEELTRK
T1 sequence (P0CI74 1-68 K32E): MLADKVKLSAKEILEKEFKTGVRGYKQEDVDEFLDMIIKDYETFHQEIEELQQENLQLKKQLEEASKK

## CSCC[C@H](NC(=O)[C@H](CO)NC(=O)CN)C(=O)N[C@@H](C)C(=O)N[C@@H](CC(=O)O)C(=O)N[C@@H](CCCCN)C(=O)N1CCC[C@H]1C(=O)N[C@@H](CCC(N)=O)C(=O)N[C@H](C(=O)N[C@@H](C)C(=O)N[C@@H](CO)C(=O)N[C@@H](CCC(N)=O)C(=O)N[C@@H](Cc1ccc(O)cc1)C(=O)N[C@@H](CCCNC(=N)N)C(=O)N[C@@H](CC(N)=O)C(=O)N[C@@H](CCCCN)C(=O)N[C@@H](CCC(N)=O)C(=O)N[C@@H](CCCNC(=N)N)C(=O)NCC(=O)NCC(=O)N[C@@H](CSC1CC(=O)N(c2ccc3c(c2)C(=O)OC32c3ccc(O)cc3Oc3cc(O)ccc32)C1=O)C(=O)N[C@@H](CCCCN)C(=O)O)[C@@H](C)O (stereo partly shown) [Fluorescein-LmPBPA11-20 Arg8AlaSer16Arg] (H-GSMADKPQTASQYRNKQRGGC(Fluorescein(5-Mal))K-OH; N-terminus and C-terminus assumed)
[1]
  reduction in affinity for BsGpsB1-68Lys32Glu: at least 10 fold

## CC[C@H](C)[C@H](NC(=O)[C@@H]1CCCN1C(=O)[C@H](CSC1CC(=O)N(c2ccc(-c3c4ccc(=[N+](C)C)cc-4oc4cc(N(C)C)ccc34)c(C(=O)[O-])c2)C1=O)NC(=O)[C@@H](NC(=O)[C@H](CCC(N)=O)NC(=O)[C@H](C)NC(=O)[C@H](CC(C)C)NC(=O)[C@H](CCCCN)NC(=O)[C@H](CCCCN)NC(=O)[C@H](CCCNC(=N)N)NC(=O)[C@H](CC(=O)O)NC(=O)[C@H](CO)NC(=O)[C@H](CCCCN)NC(=O)[C@H](CO)NC(=O)[C@H](CCCCN)NC(=O)[C@H](CCCNC(=N)N)NC(=O)[C@H](CC(C)C)NC(=O)[C@@H](NC(=O)[C@@H](NC(=O)[C@H](CO)NC(=O)[C@H](CC(=O)O)NC(=O)[C@H](CO)NC(=O)[C@H](CC(=O)O)NC(=O)[C@H](CCSC)NC(=O)[C@H](CO)NC(=O)CN)[C@@H](C)O)[C@@H](C)CC)C(C)C)C(=O)O (stereo partly shown) [TAMRA-SpPBP2a23-45 Arg31LysArg33Lys] (H-GSMDSDSTILRKSKSDRKKLAQVC(X1)PI-OH)
[2]
  reduction in affinity for SpGpsB1-63: > 25 fold

## CC[C@H](C)[C@H](NC(=O)[C@@H]1CCCN1C(=O)[C@H](CSC1CC(=O)N(c2ccc(-c3c4ccc(=[N+](C)C)cc-4oc4cc(N(C)C)ccc34)c(C(=O)[O-])c2)C1=O)NC(=O)[C@@H](NC(=O)[C@H](CCC(N)=O)NC(=O)[C@H](C)NC(=O)[C@H](CC(C)C)NC(=O)[C@H](CCCCN)NC(=O)[C@H](CCCCN)NC(=O)[C@H](CCCNC(=N)N)NC(=O)[C@H](CC(=O)O)NC(=O)[C@H](CO)NC(=O)[C@H](CCCNC(=N)N)NC(=O)[C@H](CO)NC(=O)[C@H](CCCCN)NC(=O)[C@H](CCCNC(=N)N)NC(=O)[C@H](CC(C)C)NC(=O)[C@@H](NC(=O)[C@@H](NC(=O)[C@H](CO)NC(=O)[C@H](CC(=O)O)NC(=O)[C@H](CO)NC(=O)[C@H](CC(=O)O)NC(=O)[C@H](CCSC)NC(=O)[C@H](CO)NC(=O)CN)[C@@H](C)O)[C@@H](C)CC)C(C)C)C(=O)O (stereo partly shown) [TAMRA-SpPBP2a23-45 Arg31Lys] (H-GSMDSDSTILRKSRSDRKKLAQVC(X1)PI-OH)
[2]
  reduction in affinity for SpGpsB1-63: 2 fold

## CC[C@H](C)[C@H](NC(=O)[C@@H](NC(=O)[C@H](CCCNC(=N)N)NC(=O)[C@H](CCCCN)NC(=O)[C@@H](NC(=O)[C@H](Cc1c[nH]c2ccccc12)NC(=O)[C@H](CCC(=O)O)NC(=O)[C@H](CCSC)NC(=O)CNC(=O)[C@H](CO)NC(=O)CNC(=O)[C@H](CO)NC(=O)CN)[C@@H](C)O)C(C)C)C(=O)N[C@@H](CCCNC(=N)N)C(=O)N[C@@H](Cc1ccc(O)cc1)C(=O)N[C@@H](C)C(=O)N[C@H](C(=O)N[C@@H](CCCCN)C(=O)N[C@@H](CC(N)=O)C(=O)N[C@@H](CCCNC(=N)N)C(=O)N[C@@H](CCCCN)C(=O)N[C@@H](CO)C(=O)N1CCC[C@H]1C(=O)N[C@@H](C)C(=O)N[C@@H](CCC(=O)O)C(=O)N[C@@H](CC(N)=O)C(=O)N[C@@H](CCCNC(=N)N)C(=O)N[C@@H](CCCNC(=N)N)C(=O)N[C@@H](CCCNC(=N)N)C(=O)N[C@H](C(=O)NCC(=O)N[C@@H](CCCCN)C(=O)N[C@@H](CO)C(=O)N[C@@H](CC(C)C)C(=O)N[C@@H](CSC1CC(=O)N(c2ccc3c(c2)C(=O)OC32c3ccc(O)cc3Oc3cc(O)ccc32)C1=O)C(=O)N[C@@H](CO)C(=O)O)C(C)C)[C@@H](C)O (stereo partly shown) [Fluorescein-SpPBP2x1-29] (H-GSGSGMEWTKRVIRYATKNRKSPAENRRRVGKSLC(Fluorescein(5-Mal))S-OH; N-terminus and C-terminus assumed)
[2]
  binding to SpGpsB1-63 (in words): interacts

B1: BsGpsB_(1-68)^Asp35Ala (domain or fragment, B. subtilis, UniProt P0CI74 1-68, looked up)
chain: MLADKVKLSAKEILEKEFKTGVRGYKQEDVDKFLAMIIKDYETFHQEIEELQQENLQLKKQLEEASKK
notes: GpsB, Bacillus subtilis, residues 1-68; source: E. coli, purified (Ni-NTA, thrombin, size exclusion)
[3]
  fold reduction in affinity against wild type: > 8 fold

B2: BsGpsB^Tyr25Phe: BsGpsB1-68 variant (protein)
chain: B1 chain with Y25F, A35D
modifications: left off: His6, end not stated, cleaved
notes: BsGpsB1-68 variant
[4]
  impact of mutation on protein stability: little impact on protein stability

B3: BsGpsB1-68^Asp35Ala: BsGpsB1-68 variant (protein)
chain: B1 chain
modifications: left off: His6, N-terminal, cleaved
notes: BsGpsB1-68 variant
[4]
  impact of mutation on protein stability: little impact on protein stability

B4: BsGpsB1-68^Asp31Ala: BsGpsB1-68 variant (protein)
chain: B1 chain with D31A, A35D
modifications: left off: His6, N-terminal, cleaved
notes: BsGpsB1-68 variant
[4]
  impact of mutation on protein stability: little impact on protein stability

B5: BsGpsB1-68^Glu17Ala: BsGpsB1-68 variant (protein)
chain: B1 chain with E17A, A35D
modifications: left off: His6, N-terminal, cleaved
notes: BsGpsB1-68 variant
[4]
  impact of mutation on protein stability: little impact on protein stability

B6: BsGpsB_(1-68)^Glu17Ala (domain or fragment, B. subtilis, UniProt P0CI74 1-68, looked up)
chain: B1 chain with E17A, A35D
notes: as for B1
[3]
  fold reduction in affinity against wild type: > 8 fold
